This series in a line: soluble on expression in E. coli; label from the status in PepcDB or PDB records.
Turning to “MSLQPTAGETTFERVRRTRKLRIGAVNGGAPYYYRDLASGQWKGFYIDICKALADEMECELDVTETTWGNSVLDLQAGKTDVFFGLNPTPKRALVVDFSVPVFANAFTFITRKGFERKTWAEMNDPAVRIAVDAGSSHDAVVTRLAPKAQITRLKGADDATAALQAGRVDAQCLVFILSLTVLKKNPALGQFTLPTPIFSTTSNAGFRREADKTWRDYVSTWIEFNKGMGFIRSAIIGNLESEGHHHHHH”, the “soluble on expression in E. coli” value was “not soluble”.
For the sequence “MSLQQALINFYYQFHTKQHYFLCHDILEDAWKAENNYSKQDAVVSLILFATACYHYRRNNLKGAYKSFNKSKEIIQNAKDRDALYLNLNDYQLLIEQQIAKLNAAKPFSSVILPITPVFERIIKANYPDYDYNQETATDPFIVDHHMRRDRSEVIAAKEEAIQLRKHRRNEGHHHHHH”, the “soluble on expression in E. coli” value is “soluble”.
“MSLQSFENEIAFITGGASGAGFGQAQVFGRAGAKIVVADVRAEAVERAVAALKAEGIVAHGLVLDITDRQAYAGAADEVEQVFGAAPTLLFNTAGVNSFGPVEDTSYDDFDWIVGVNLGGVINGMVTFVPRMIASGRPGHIVTTSSLGGLMGSALAAPYSAAKAAVINLMESYRQGLDKHGIGVSVLCPANIKSNIAEASRLRPAQFGKSGYVENEESIASLHSIHQHGMDPVELAEHVKAGIVANQLYIIPYPEAKDGLRQHFDAIVDAVLPLEADPEGARARTEALNAWAADRARVFMEKNAAQKAEGHHHHHH”: the “soluble on expression in E. coli” value is on record as “not soluble”.
Turning to “MSLQVQKSFKEQTAYGKLYLVPTPIGNLQDMTFRSIAILKKVDYIAAEDTRNTGLLLKHFDISTRQLSFHEHNAFEKIPDLLKLLKSGNSLAQVSDAGLPSISDPGYDLVRAAIQEDIAVIALPGASAGITALIASGLAPQPHIFYGFLPRKSGQQKSFFEEKKYYPETQIFYESPYRVQETLENILSVYGDRQIVLTRELTKLYEEYQRGNISEILTYIAENPLKGECLLLVSGYDHQEKEQQVSEVELKHLVEALVKEGMKPNQAIKKVAKENDFNRQELYQLYHELQEGHHHHHH”, the “soluble on expression in E. coli” value is “soluble”.
Take “MSLQWKPAGDKIRTFWAEKVDVNNVLPEYPRPIMERSDWQNLNGLWNYAVLPLGQSAPTTFDGKILVPFAIESSLSGVGKTLGMEKELWYQRAFNIPSSWRGKRVLLHFGAVDWKTEVWVNNIKVGEHTGGFTPFTFDVTEALEKSTNTLTVKVWDPTDKGFQPRGKQVSNPRGIWYTPVSGIWQTVWLEPVSEHYIAGIKTTPDIDTNKIKVKVETDSNRQSDRLEVKVFDGKHLVAMGTSINGLPVEIPMPADAKLWSPDSPFLYQMEVSLISAGKLVDQIKSYVAMRKYSIKRDEHGIVRLQLNNKDLFQFGPLDQGWWPDGLYTAPTDEALRYDIEKTKDFGFNMIRKHIKVEPARWYTYCDQIGLIVWQDMPSGDKSPEWQNRKYFEGTELTRSAESEETYRKEWKEVIDCLYSYPCIGTWVPFNEAWGQFKTQEIAEWTKQYDPSRLVNPASGGNHYTCGDMLDLHHYPGPEMFLYDAQRATVLGEYGGIGLVLKDHLWEPNRNWGYIQFNTSAEATAEYLKYAGILKDMISRGFSAAVYTQTTDVEVEVNGLMTYDRKVIKLDESKLKKMNTEICNSLKEGHHHHHH”: the “soluble on expression in E. coli” value is listed as “soluble”.
The entry for “MSLQYIVVTGGVISGLGKGTITSSIGHILKDSGFKVSSVKIDPYINYDAGTMNPYQHGEVFVLDDGSEVDLDLGNYERFMDINLSWKNNITTGKVYLEVIEKERHGDYLGKTVQIIPHITDEIKRRIRDVATSSKADFVLIEVGGTVGDIESMPFLEAVRQLKREENNVIFAHVTLVPEIGPTEEQKTKPTQHSVTALREIGIQPDIIFARSKNRLLEETKKRISLFTDVPEGGIISVYDVENVYLLPEVMVNEGFISYLSKLSGKEIKYRDSWKAYTENIKHPKDRVKIAIVGKYVDLHDAYISHKEAFSHVTGNTGIAVDIKWLDSEKVKDDQSMLSDVDAILIPGGFGYRGVEGKIAATRFALENHIPFLGICLGFQVAVIEIARDIIGLQNANSTEFDPATKYPVIDILPEQKGIKDLGGTMRLGSKKVLIKDGTLAKRIYGTDTIYERHRHRYEVNPNYISIIEKAGFVFSGTDEDGIRMEILEKKGDESFIATQYHSEFKSRPLNPSRVHLHLVQQALIYKKNKDIGEAVKLRSSVEGHHHHHH” is “soluble”.
Take “MSLRAVRLHAKWDPRPEFKLGPKDIEGKLTWLGSKVWRYPEVRVEEVPEPRIEKPTEIIIKVKACGICGSDVHMAQTDEEGYILYPGLTGFPVTLGHEFSGVVVEAGPEAINRRTNKRFEIGEPVCAEEMLWCGHCRPCAEGFPNHCENLNELGFNVDGAFAEYVKVDAKYAWSLRELEGVYEGDRLFLAGSLVEPTSVAYNAVIVRGGGIRPGDNVVILGGGPIGLAAVAILKHAGASKVILSEPSEVRRNLAKELGADHVIDPTKENFVEAVLDYTNGLGAKLFLEATGVPQLVWPQIEEVIWRARGINATVAIVARADAKIPLTGEVFQVRRAQIVGSQGHSGHGTFPRVISLMASGMDMTKIISKTVSMEEIPEYIKRLQTDKSLVKVTMLNEGHHHHHH”: the “soluble on expression in E. coli” value is recorded as “soluble”.
Consider “MSLREIHVDTLTDAVAKLCIDACHRLPDNLVESFHKAAEKEVSPLGKSVLMKLIDNDRIARENDVSYCHDTGLAIVFVEVGQDVHIVGGSYEDAIQAGVRKGYAEGYMRKSVVSDPLLRVNSNDNTPAVVHTEIVPGDNIEVTVVPKGGGSENWSTMKFLLPGEGAEGVKKFVLSAIEAAGGAACPPLTVGVGIGGSFDKVTAIAKKAILRDIGVHHKEPHVAKLEAELLDAINKTGIGPQGYGGVNTALWVSVETYACHITALPVAVNIQCHAGRRATAVIEGHHHHHH”, for which the “soluble on expression in E. coli” value is listed as “soluble”.
On to “MSLREYRYSDAHLHYVDFFQESEGMPALIKAMDAAGVEQSMISGIPVAKKWHEDEPKRPRYYAGDDADAYWYSATDTYVAAALQQLPSDQRKRFHPFLSGFNPVDKNAVSHIERMLDLYPGLWQGIGEVFTRHDDLTALTSGDTPRANNEAMTRIYHLAAERDLPVLLHSNITSKRERNPLYLAEIEEPLRNHPHTRFIWAHAGSSMEIHRHQKQMDFLLPVLTRLLEDYPNLYVDLSWSVLQPYLLDEQGAPRKEWLALVEKYPERFMLGSDVVGRFGSLGEQMHGFKPFLDALPESVAHKVARENFLAVLPKARHEGHHHHHH”, for which the “soluble on expression in E. coli” value is “soluble”.
As to “MSLRGGETLEYDPDVLDENVEIEVGDVVEIKKFEKTEVYVSGYVSRPGVYEISPKENVTLEKLLSMAGGIKGTLEEVDSIVVTRDGSVITLSPNNLDFSVKPGDVVNVKEFVPKKAYVLGYVRNPGLYTFGKNEAFTLRNLIAKAGGFVDEGQVVSVKVAGKEYSEGHHHHHH”, the “soluble on expression in E. coli” value is recorded as “soluble”.
Next, “MSLRIAIIITQKTNDLHATVPCFLWRKARYAVDLISAEAKASIMLEMGIHVRCDNTLSKTNFNQYTAAFIPHGNTTRLVEIDKLRKDLEKFVYKPKGPMRWLFSSGNGACVLKEFDLIAPDQLVTVQNEKEMVKLLGKNFIKQPVHVDKNIISCANSCGLTKFSFKVIEELSGIELARKTANLVDHIYKGEGHHHHHH”: “soluble”; “MSLRINGQAELSGANTFLQAQVQLTGEVEIKLQKPLQLTAAKAATEIHLRIPDFVVWKDLFESTPFAVPAPLHVLTGDIELDVHAQLTDLDSPLQADATAQSRLSSKNQKLFVKATADLETLGKILKPRGLKVHADVVLQDVHLQAPPLRLAVPPQVLPDKRFVMRKDLDIIEEEKPAPTSRIPFELLWSVNIKTEKPVLISSNLLQSPVPVALDMQVQSDRKPQGKVMVQSFPFEFFRKKATVNNVDLIFHPDTVAPELSGKISYSNPEVNIRILLLGNTQRPIVNLESDPQLNQQQILSVLLFDKSLDELNEDEVNSTSNMSRAVSDGALGLFSLMFLSSTPIQSISYDPNSQSYTARMRLDDNTTFSMQSNMTEQRQFTLRRRLGGNWSVRTELSQEDSRADVVQTLLEWMRRFEGHHHHHH”: “not soluble”.
“MSLRISILQNNNKEVEAVKSEYESKLSKIQNDLDQQTIYANTAQNNYEQELQKHADVSKTISELREQLHTYKGQVKTLNLSRDQLENALKENEKSWSSQKESLLEQLDLSNSRIEDLSSQNKLLYDQIQIYTAADKEVNNSTNGPGLNNILITLRRERDILDTKVTVAERDAKMLRQKISLMDVELQDARTKLDNSRVEKENHSSIIQQHDDIMEKLNQLNLLRESNITLRNELENNNNKKKELQSELDKLKQNVAPIESELTALKYSMQEKEQELKLAKEEVHRWKKRSQDILEKHEQLSSSDYEKLESEIENLKEELENKERQGAEAEEKFNRLRRQAQERLKTSKLSQDSLTEQVNSLRDAKNVLENSLSEANARIEELQNAKVAQGNNQLEAIRKLQEDAEKASRELQAKLEESTTSYESTINGLNEEITTLKEEIEKQRQIQQQLQATSANEQNDLSNIVESMKKSFEEDKIKFIKEKTQEVNEKILEAQERLNQPSNINMEEIKKKWESEHEQEVSQKIREAEEALKKRIRLPTEEKINKIIERKKEELEKEFEEKVEERIKSMEQSGEIDVVLRKQLEAKVQEKQKELENEYNKKLQEELKDVPHSSHISDDERDKLRAEIESRLREEFNNELQAIKKKSFDEGKQQAMMKTTLLERKLAKMESQLSETKQSAESPPKSVNNVQNPLLGLPRKIEENSNSPFNPLLSGEKLLKLNSKSSSGGFNPFTSPSPNKHLQNDNDKRESLANKTDPPTHLEPSFNIPASRGLISSSSTLSTDTNDEELTSNNPAQKDSSNRNVQSEEDTEKKKEGEPVKRGEAIEEQTKSNKRPIDEVGELKNDEDDTTENINESKKIKTEDEEEKETDKVNDENSIEGHHHHHH”: the “soluble on expression in E. coli” value is “soluble”.
For the sequence “MSLRKMKRFYIASEEEIKTGKTTDIYFLRTRKILETKNIRKKVLADVTTTSLPENWKWGVLVGVEEVAKLLEGIPVNVYAMPEGTIFHPYEPVLQIEGDYADFGIYETALLGMLSQASGIATAALRIKIAAKFKPVYSFGIRHMHPAIAPMIDRAAFIGGCDGVSGVLGAEMMGEKAVGTMPHALIITVGDQVKAWKYFDEVIEKEVPRIALVDTFYDEKIEAVMAAEALGKKLSAVRLDTPSSRRGNFRRIIEEVKWELKIRGYDWVKILISGGLDEEKIKEIVDVADAFGVGSAIASAKPIDFALDIVEVEGKPIAKRGKLSGRKQVYRCENGHYHVVPADKKLERCPVCNAKVEPLLKPIIENGEIVVEFPKARDIREYVLEQAKKFNLEIEGHHHHHH”, the “soluble on expression in E. coli” value is “not soluble”.
With “MSLRKNLEEEQRLIDAKKLSLVIDLDKTLIDTTEVRNRAEVDAIKKLDPAATEDDFFEFNMNQNLLIRYRPHVRQFLASIAPYFDMQIYTLASPAYAHAILSKIDPEDKLFKNRIFSRTAEDFAMIKEAMRNQTDIVNKKNIKKIFPYSDKLVLVLDDSPEVWFCDNNKLFKGLVQIKRYSYFTRQGPNSPPTVNPDYVNDDILIQMRSVLIDVHDMFYKNYDPEESHVIMTLHQRKAQVFEGKTFYFSGLSEDDTMTFTRLAEEFGALVVDSFTPYTTHIIVGEGGTDDQIQKAMEYRGVYIIYLKWLFECFIQYARIEESLYSIQGIPCPTEGHHHHHH”, the “soluble on expression in E. coli” value is recorded as “soluble”.
In the case of “MSLRLKWEGTFADYLEIIKENPMVAQSAHSRVFNMIKDSGIEEIDGRKKYSFFDRELFGLEESLERLVEEYFHPAAKRLDVRKRILLLMGPVSGGKSTLVTMLKKGLEAYTLTDNGAVYAIKGCPMHEDPLHLIPHHLRDDFYREYGIRIEGSLSPLNVMRLEEEYGGRIEDVKVERIFFSEDKRTGIGTFSPSDPKSQDIADLTGSIDFSTIAEYGSESDPRAYRFDGELNKANRGMMEFQEMLKCDEKFLWHLLSLTQEGNFKAGRFALISADELIVAHTNETEYRSFISNKKNEALHSRIIVMPVPYNLKVSEEERIYEKMIAESDVADVHIAPHTLKVAAMFSILTRLKEPKRSDIDLVKKMRLYDGESVEGYNSVDVEDMKKEYNDEGMSGIDPRYVINRISSTIIRKNMESINSLDVLRSLKEGLDQHPSISSEDRERYLNFISAARKEYDDIAKKEVQKAFVYSYEESAKTLMDNYLDNVEAYCNKNKLRDPLTGEEMNPDEKLMRSIEEQIGISENAKKAFREEILIRISAYARKGKRFDYNSHERLREAIQKKLFADLKDVVKITTSTKTPDEQQLKKVNEVVARLIDEHGYNSTSANELLKYVGSLLNREGHHHHHH”, the “soluble on expression in E. coli” value is reported as “soluble”.

Values taken from the DeepSol protein solubility set.
